Experimental data as given in the supplement of paper PMC10567573.
± gives the standard deviation.

Experiment: protein stability index of a GFP-peptide fusion (GPS, HEK-293T) (PSI 1-6); higher = more stable
[1] = treatment: DMSO, c terminus: a fixed tail appended
[2] = treatment: MLN4924 1 uM, 8 h, c terminus: a fixed tail appended
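Further: 24-mer peptide tiles fused after GFP, lentivirally expressed, FACS-sorted into six equal bins by GFP/DsRed ratio, decoded by Illumina sequencing, PSI is the read-weighted mean bin number.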

Sequence | protein stability index [1] | protein stability index [2] | protein stability index (treatment: DMSO, c terminus: native) | protein stability index (treatment: MLN4924 1 uM, 8 h, c terminus: native)
QSLNDRLASYLDRVRSLETENRRL [KRT18] | 3.65 ± 0.044 | 3.67 ± 0.23 | – | –
QSLVSILRTTVHHAFPVVTENRGN [CLCN6] | 2.69 ± 0.57 | 2.46 ± 0.059 | – | –
QTVTVEEAAGGESALAPSVFKQAK [MAP2] | 5.21 ± 0.32 | 5.38 ± 0.45 | – | –
QVALLRLTWSELFVLNAAQCSMPL [NR2F2] | 2.97 ± 0.44 | 3 ± 0.41 | – | –
QVHAWQLYYSKKLLDSWFTSTQEK [JAGN1] | 2.23 ± 0.29 | 2.29 ± 0.29 | – | –
QVNGHPDPFDEIILFSLPPALDWD [PTPN9] | 2.27 ± 0.23 | 2.31 ± 0.4 | – | –
QWTVGKLNCPFCGARLGGFNFVST [RNF180] | 2.46 ± 0.39 | 2.65 ± 0.54 | – | –
QYIISDLASARIIEQDAVVPSEWL [GMCL1] | 2.76 ± 0.24 | 2.76 ± 0.25 | – | –
QYQLLRCNVDLLKIIQLGLTFMNE [CNOT7] | 2.73 ± 1.8 | 2.86 ± 0.42 | – | –
RADLVFIIDSSRSVNTHDYAKVKE [MATN2] | 2.51 ± 0.32 | 2.72 ± 0.34 | – | –
RALSDTTEELTVIKSSLKDEYQYS [SLC2A12] | 4.54 ± 0.22 | 4.68 ± 0.08 | – | –
RASRLQAPVLVAAPHSTFFDPIVL [LPCAT4] | 2.6 ± 0.31 | 2.71 ± 0.2 | – | –
RCRQSLEDSESLRIKEVEHMTRHL [LRRC45] | 3.42 ± 0.14 | 3.46 ± 0.17 | – | –
RDNGHSNRDEHSSRGYRNHRSSRE [RBMY1A1] | 5.1 ± 0.074 | 5.24 ± 0.088 | – | –
REIMEKFGKQPVSLPARRLKLRGR [CPXM2] | 3.64 ± 0.16 | 3.65 ± 0.088 | – | –
RELLDRAMREAIQSYPSQDKPLPP [SOAT2] | 3.94 ± 0.12 | 3.95 ± 0.083 | – | –
REQKEKSPPDQPAVPHPPPSTPIK [ADD1] | 5.39 ± 0.12 | 5.53 ± 0.18 | – | –
RFCLPHLVALAEQHAVQELTKAAT [RHOBTB1] | 2.12 ± 0.18 | 2.08 ± 0.15 | – | –
RGIDIIKWMERYLRDKTVMIIVAI [TRAF3IP2] | 2.25 ± 0.31 | 2.33 ± 0.42 | – | –
RGLVGVGEASYSTIAPTLIADLFV [SPNS1] | 2.29 ± 0.62 | 2.13 ± 0.26 | – | –
RGPDNALLEATGGAAGRSHHLDED [KCTD10] | 5.54 ± 0.26 | 5.42 ± 0.25 | – | –
RGRFTTYEIRVKTNLPIFKLKEST [SNX3] | 2.54 ± 0.98 | 2.47 ± 0.57 | – | –
RGTHAVVGVATADAPLHSVGYTTL [SPSB1] | 2.73 ± 0.26 | 2.88 ± 0.14 | – | –

Sequence | protein stability index [1] | protein stability index [2] | protein stability index (treatment: DMSO, c terminus: native) | protein stability index (treatment: MLN4924 1 uM, 8 h, c terminus: native)
RGWLLTSGTDKVIKLWDMTPVVS [WDFY2] | – | – | 2.01 ± 0.2 | 2.26 ± 0.24
RHRIPEPEAAVLFRQMATALAHCH [TRIB3] | 2.48 ± 0.084 | 2.29 ± 0.19 | – | –
RKLSFSHSDHSSEMSLPEVQKDKY [SPATS1] | 4.85 ± 0.15 | 4.93 ± 0.2 | – | –
RKPPVFDENEDVNFDHFEILRAIG [STK32A] | 2.76 ± 0.36 | 2.86 ± 0.31 | – | –
RKQRRRERWLQKQGKYSGVGLLDH [RNF180] | 3.43 ± 0.26 | 3.94 ± 0.33 | – | –
RKSSKLIMELTGGGQESSGLNLGK [MYOZ1] | 3.72 ± 0.082 | 3.98 ± 0.26 | – | –
RLLGSVQQDLERSLQDASRGDPAH [PBXIP1] | 4.7 ± 0.2 | 4.56 ± 0.46 | – | –
RLPRQNSDGGQKNKPREHIIDCGD [WSB1] | 4.54 ± 0.39 | 5.07 ± 0.095 | – | –
RLQQELEQQRCLLLARLRELEQQI [TRIM15] | 3.68 ± 0.2 | 3.69 ± 0.39 | – | –
RLQVVKLLAKMFGAKDSELASQNK [PDS5B] | 2.11 ± 0.34 | 2.7 ± 0.075 | – | –
RMETPKSREITTLANNQCMATESV [EHMT1] | 4.56 ± 0.22 | 4.79 ± 0.08 | – | –
RMLMKRLDVTVQSFGWSDRAKVKT [FAM98B] | 2.48 ± 0.34 | 2.34 ± 0.34 | – | –
RPIIASISSGVVSIWAQNQVENWS [RBBP5] | 2.22 ± 0.34 | 2.26 ± 0.42 | – | –
RPSEAQSVILRRYFLELTQSFIIP [DENND6A] | 2.91 ± 0.44 | 2.67 ± 0.45 | – | –
RQIQEEEDEKQRLQNEVRQLTEKL [SSNA1] | 4.98 ± 0.19 | 5.04 ± 0.21 | – | –
RQLALPATEQAATQESTFQELCEG [NOP53] | 5.12 ± 0.16 | 5.22 ± 0.21 | – | –
RREVERKQKGSEENLDEAREQKEK [ADD1] | 5.5 ± 0.29 | 4.91 ± 0.87 | – | –
RRTYLGGAAGRSQEPEVPCAAVLP [RSPH3] | 4.37 ± 0.092 | 4.37 ± 0.18 | – | –
RSLNVASGSGKSGGYGFGRGRASG [KRT71] | 4.35 ± 0.38 | 4.49 ± 0.27 | – | –
RSQQQEPLLCPSYQSYFKTIEELQ [KRT33B] | 3.21 ± 0.37 | 3.43 ± 0.18 | – | –
RSWFPSAPGSASSSKVSGVLKKLA [YJU2B] | 2.61 ± 0.27 | 2.5 ± 0.38 | – | –
RTDLEMQIEGLNEELAYLKKNHEE [KRT15] | 4.85 ± 0.3 | 4.77 ± 0.22 | – | –
RTHGDMHSLVRSRHRIPEPEAAVL [TRIB3] | 3.8 ± 0.11 | 3.91 ± 0.086 | – | –

Sequence | protein stability index [1] | protein stability index [2] | protein stability index (treatment: DMSO, c terminus: native) | protein stability index (treatment: MLN4924 1 uM, 8 h, c terminus: native)
RTHTGEKPYKCTLCGENFSHRSNL [ZNF263] | 2.43 ± 0.27 | 2.79 ± 0.53 | – | –
RTIVEEVQDGKVISSREQVHQTTR [KRT17] | 4.69 ± 0.25 | 5.01 ± 0.38 | – | –
RTLASGRLLSYRGERVAARGYWGD [DNAAF3] | 2.96 ± 0.17 | 3.08 ± 0.19 | – | –
RVLQNLLTIEERYLPQCSYFKCVQ [CCND2] | 3.08 ± 0.22 | 2.69 ± 0.57 | – | –
RVQQHIESKLLGSNSSRMYFTQTL [MLH1] | 2.37 ± 0.23 | 2.29 ± 0.38 | – | –
RVRGLGLPKLYLPTGPRRGRDELG [CDKN1A] | 3.33 ± 0.58 | 3.43 ± 0.057 | – | –
RYMLTRDYLTVKVWDLNMEARPIE [PPP2R2C] | 2.51 ± 0.3 | 2.37 ± 0.24 | – | –
SACTVALHIFQLNEDGPSSENLEE [TRIP13] | 3.23 ± 0.2 | 3.33 ± 0.19 | – | –
SALGRQRLQDISSLPLPQSLKNYL [SPSB4] | 2.85 ± 0.11 | 3.27 ± 0.6 | – | –
SASEEEDTKPKPTKRKRKGSSAVG [INTS3] | 5.23 ± 0.23 | 5.38 ± 0.16 | – | –
SAWSNIQEAPLQDDSCLNNDIPHS [FAN1] | 4.98 ± 0.2 | 5.07 ± 0.067 | – | –
SCKENCTCSSCLLRAPTISDLLND [EDARADD] | 4.85 ± 0.41 | 4.83 ± 0.33 | – | –
SDGILRGNGTGYLPGRGRVLSSWS [RHOBTB2] | 3.42 ± 0.2 | 3.26 ± 0.3 | – | –
SDVVDWLYHNVEGFTDRREARKYA [DVL3] | 3.23 ± 0.31 | 3.53 ± 0.33 | – | –
SEDVNWGYEKRNLARVPKLDLKRQ [CHGB] | 4.34 ± 0.3 | 4.27 ± 0.25 | – | –
SEEYQQAQHKFLVAVESMEPNNIV [TCF25] | 4.26 ± 0.22 | 4.29 ± 0.15 | – | –
SEFQAALSRKVAELVHFLLLKYRA [MAGEA3] | 2.57 ± 0.56 | 2.48 ± 0.51 | – | –
SEGFESDSSHDSARASEGSDSGSD [SMG5] | 5.51 ± 0.3 | 5.7 ± 0.1 | – | –
SELEDLTEPEQRELKTKLTKLEAE [TPD52L3] | 5.31 ± 0.45 | 5.6 ± 0.15 | – | –
SFRKFRYGYNNVVTIPAGATHILV [ADAMTS4] | 2.64 ± 0.28 | 2.99 ± 0.51 | – | –
SGAAASLNVDAAVQQWLQKGTPAS [CHIT1] | 4.12 ± 0.33 | 4.01 ± 0.35 | – | –
SGIPEVKCYLNGVKVPGIVRLRTL [CLCN6] | 2.4 ± 0.53 | 1.91 ± 0.35 | – | –
SGKESPPVSDTPDEGDEPMPIPED [IKZF1] | 5.866 ± 0.015 | 5.71 ± 0.38 | – | –

Sequence | protein stability index [1] | protein stability index [2] | protein stability index (treatment: DMSO, c terminus: native) | protein stability index (treatment: MLN4924 1 uM, 8 h, c terminus: native)
SGPMQAALQAAAHASVDIKDVLDF [SMG5] | 4.42 ± 0.17 | 4.18 ± 0.1 | – | –
SGYHYGVWSCEGCKAFFKRSIQGH [ESR2] | 2.03 ± 0.33 | 2.52 ± 0.41 | – | –
SKAKPKPPKQAQKEQRKQMKGRGQ [TBC1D10A] | 5.02 ± 0.23 | 5.08 ± 0.31 | – | –
SLFCYEDQEAVCLICAISHTHRAH [TRIM39] | 2.15 ± 0.19 | 2.19 ± 0.2 | – | –
SLGQMKELGVIFYNCSCLVLDLQR [PLD5] | 2.44 ± 0.64 | 2.93 ± 0.48 | – | –
SLHVDDRERMELLEEAKKMEMAKF [RIPK4] | 4.92 ± 0.42 | 4.76 ± 0.15 | – | –
SLNALEDQDLDALMADLVADISEA [APBB1IP] | 4.58 ± 0.15 | 4.36 ± 0.23 | – | –
SLVAILLVFLITAILVKVQLDALP [SLC29A1] | 2.35 ± 0.6 | 2.54 ± 0.58 | – | –
SLVGNLGISGTTTKKGDLQWNAGE [SNAP91] | 3.54 ± 0.39 | 3.62 ± 0.23 | – | –
SNMKSRYTTEFHELEKIGSGEFGS [WEE1] | 3.9 ± 0.31 | 4.04 ± 0.19 | – | –
SNSQPTNESHSIKAILKNISVLAF [SLC29A1] | 2.45 ± 0.46 | 2.43 ± 0.29 | – | –
SNVGTAISKKFGDMSYSIRHSISM [TPD52L1] | 2.19 ± 0.49 | 2.26 ± 0.45 | – | –
SPFSGSLHAPPAFYSTSSGLANGL [VENTX] | 2.89 ± 0.048 | 2.96 ± 0.17 | – | –
SPGKQPGENSDCHRDSSQAIPITE [ZNF8] | 5.4 ± 0.17 | 5.429 ± 0.041 | – | –
SPNPFPEISRGEYLYTYDSQITDS [ZNF8] | 4.08 ± 0.17 | 4.35 ± 0.38 | – | –
SPPGSTKRRKSMSGASPKESTNPE [CDC25A] | 5.47 ± 0.11 | 5.4 ± 0.21 | – | –
SPSGAALPLPLSLAPPPLPLPAAA [ZBTB22] | 3.92 ± 0.25 | 4.2 ± 0.29 | – | –
SQEPDPVQRLQAYTATEQEMQQQM [TRIM14] | 5.39 ± 0.15 | 5.17 ± 0.14 | – | –
SQFSGTLMRTCERLVKEGRFVPSN [PPTC7] | 3.12 ± 0.17 | 3.04 ± 0.4 | – | –
SQPATPTPLQSRTSIVQAAAGGVP [PDLIM7] | 4.6 ± 0.25 | 4.6 ± 0.19 | – | –
